Measured values published in the Immune Epitope Database (IEDB).

Assays:
HLA-A*23:01 = test: IEDB peptide-MHC binding, purified MHC/direct/fluorescence; filed as Kd, often an IC50 or EC50 that approximates it; ≥ and ≤ were set here for values at or beyond the usual limits of such assays
HLA-A*24:03 [1] = test: as above
HLA-A*24:03 [2] = test: IEDB peptide-MHC binding, purified MHC/competitive/fluorescence; filed as Kd, often an IC50 or EC50 that approximates it; ≥ and ≤ were set here for values at or beyond the usual limits of such assays
HLA-A*31:01 [3] = test: as above; conditions: source organism: Bacillus anthracis str. A0488
HLA-A*01:01 = test: IEDB peptide-MHC binding, purified MHC/direct/fluorescence; filed as Kd, often an IC50 or EC50 that approximates it; ≥ and ≤ were set here for values at or beyond the usual limits of such assays
HLA-A*02:01 [4] = test: as above
HLA-A*03:01 [5] = test: as above
HLA-A*11:01 = test: as above; conditions: source organism: Mammarenavirus lassaense
HLA-A*29:02 = test: as above
HLA-A*31:01 [6] = test: as above
HLA-A*69:01 [7] = test: as above; conditions: source organism: Mammarenavirus lassaense
HLA-B*07:02 = test: as above; conditions: source organism: Mammarenavirus lassaense
HLA-B*15:01 [8] = test: as above
HLA-B*18:01 [9] = test: as above
HLA-B*27:05 = test: as above
HLA-B*39:01 [10] = test: as above
HLA-B*40:01 = test: as above; conditions: source organism: Mammarenavirus lassaense
HLA-B*44:02 = test: as above
HLA-B*46:01 [11] = test: as above
HLA-B*48:01 = test: as above
HLA-B*57:01 [12] = test: as above
HLA-B*58:01 = test: as above; conditions: source organism: Mammarenavirus lassaense
HLA-A*02:01 [13] = test: IEDB peptide-MHC binding, purified MHC/competitive/fluorescence; filed as Kd, often an IC50 or EC50 that approximates it; ≥ and ≤ were set here for values at or beyond the usual limits of such assays
HLA-A*02:03 [14] = test: as above; conditions: source organism: Yersinia mollaretii ATCC 43969
HLA-A*02:12 [15] = test: as above; conditions: source organism: Yersinia mollaretii ATCC 43969
HLA-A*02:19 [16] = test: as above; conditions: source organism: Yersinia mollaretii ATCC 43969
HLA-A*03:01 [17] = test: as above
HLA-A*26:01 = test: as above
HLA-A*68:02 [18] = test: as above; conditions: source organism: Yersinia mollaretii ATCC 43969
HLA-B*15:01 [19] = test: as above
HLA-B*15:17 = test: as above; conditions: source organism: Yersinia mollaretii ATCC 43969
HLA-B*18:01 [20] = test: as above
HLA-B*27:03 = test: as above
HLA-B*39:01 [21] = test: as above
HLA-B*46:01 [22] = test: as above
HLA-B*51:01 = test: as above
HLA-B*57:01 [23] = test: as above
HLA-A*02:11 = test: IEDB peptide-MHC binding, purified MHC/direct/fluorescence; filed as Kd, often an IC50 or EC50 that approximates it; ≥ and ≤ were set here for values at or beyond the usual limits of such assays
HLA-A*02:12 [24] = test: as above
HLA-A*68:02 [25] = test: as above
HLA-A*69:01 [26] = test: IEDB peptide-MHC binding, purified MHC/competitive/fluorescence; filed as Kd, often an IC50 or EC50 that approximates it; ≥ and ≤ were set here for values at or beyond the usual limits of such assays
HLA-A*02:03 [27] = test: IEDB peptide-MHC binding, purified MHC/direct/fluorescence; filed as Kd, often an IC50 or EC50 that approximates it; ≥ and ≤ were set here for values at or beyond the usual limits of such assays; conditions: source organism: Orthohantavirus andesense
HLA-A*02:16 = test: as above; conditions: source organism: Orthohantavirus andesense
HLA-A*02:19 [28] = test: as above; conditions: source organism: Orthohantavirus andesense
[29] = source organism: Cryptosporidium parvum Iowa II
[30] = source organism: Mammarenavirus lassaense
[31] = source organism: Yersinia mollaretii ATCC 43969
[32] = source organism: Isla Vista hantavirus
[33] = source organism: Orthohantavirus tulaense
[34] = source organism: Orthohantavirus puumalaense
[35] = source organism: Orthohantavirus andesense
[36] = source organism: Vibrio vulnificus CMCP6

Measured: Kd

CIIGTVSKF
49 nM: HLA-A*24:03 [1]; source organism: Amur virus
97 nM: HLA-A*23:01; source organism: Amur virus

GFKRGIFIF
≤ 1 nM: HLA-A*24:03 [1]; [29]
2 nM: HLA-A*23:01; [29]

HFFESLYAR
1.6 nM: HLA-A*31:01 [3]
4.13 µM: HLA-A*24:03 [2]; source organism: Bacillus anthracis str. A0488

KHDEEFCDM
≥ 20 µM: HLA-A*01:01; [30] | HLA-A*02:01 [4]; [30] | HLA-A*03:01 [5]; [30] | HLA-A*11:01 | HLA-A*29:02; [30] | HLA-A*31:01 [6]; [30] | HLA-A*69:01 [7] | HLA-B*07:02 | HLA-B*15:01 [8]; [30] | HLA-B*18:01 [9]; [30] | HLA-B*27:05; [30] | HLA-B*39:01 [10]; [30] | HLA-B*40:01 | HLA-B*44:02; [30] | HLA-B*46:01 [11]; [30] | HLA-B*48:01; [30] | HLA-B*57:01 [12]; [30] | HLA-B*58:01

MMWIPGWFG
185 nM: HLA-A*02:12 [15]
≥ 20 µM: HLA-A*02:01 [13]; [31] | HLA-A*02:03 [14] | HLA-A*02:19 [16] | HLA-A*24:03 [2]; [31] | HLA-A*26:01; [31] | HLA-A*68:02 [18] | HLA-B*15:01 [19]; [31] | HLA-B*15:17 | HLA-B*18:01 [20]; [31] | HLA-B*27:03; [31] | HLA-B*39:01 [21]; [31] | HLA-B*46:01 [22]; [31] | HLA-B*51:01; [31] | HLA-B*57:01 [23]; [31]
≥ 20000 nM: HLA-A*03:01 [17]; [31]

SSLRYGNVL
≥ 20 µM: HLA-A*01:01; [32] | HLA-A*02:01 [4]; [32] | HLA-A*02:11; [33] | HLA-A*02:12 [24]; [33] | HLA-A*03:01 [5]; [32] | HLA-A*29:02; [32] | HLA-A*31:01 [6]; [32] | HLA-A*68:02 [25]; [33] | HLA-B*15:01 [8]; [32] | HLA-B*18:01 [9]; [32] | HLA-B*27:05; [32] | HLA-B*44:02; [32] | HLA-B*46:01 [11]; [32] | HLA-B*48:01; [32] | HLA-B*57:01 [12]; [32] | HLA-A*26:01; [34] | HLA-A*69:01 [26]; [34] | HLA-B*27:03; [34] | HLA-B*51:01; [34]
4 µM: HLA-B*39:01 [10]; [32]
≥ 20000 nM: HLA-A*24:03 [1]; [33]

STGKSIKFK
≥ 20000 nM: HLA-A*24:03 [1]; [35]
≥ 20 µM: HLA-A*02:03 [27] | HLA-A*02:11; [35] | HLA-A*02:12 [24]; [35] | HLA-A*02:16 | HLA-A*02:19 [28] | HLA-A*29:02; [35] | HLA-A*68:02 [25]; [35] | HLA-A*02:01 [13]; [35] | HLA-A*26:01; [35] | HLA-A*69:01 [26]; [35] | HLA-B*15:01 [19]; [35] | HLA-B*18:01 [20]; [35] | HLA-B*27:03; [35] | HLA-B*39:01 [21]; [35] | HLA-B*46:01 [22]; [35] | HLA-B*51:01; [35] | HLA-B*57:01 [23]; [35]
14.7 nM: HLA-A*03:01 [17]; [35]

SVYFAAFAF
≥ 20 µM: HLA-B*46:01 [22]; source organism: Vibrio vulnificus YJ016
16 nM: HLA-A*23:01; [36]
66 nM: HLA-A*24:03 [1]; [36]
